PMC13397619

B1: NLV3 TCR beta chain (CDR3β only) (parent)
chain: ASSPTGGSPSPLH
partner: MLVPMVATV

Variants of: B1
Test: T-Switch: Jurkat TCRβ−/− cells expressing a CDR3 saturation-mutagenesis library, stained with two peptide-HLA-A*02:01 tetramers (original and novel peptide) plus anti-CD3, FACS-sorted into four gates, gDNA sequenced
Settings: with HLA-A*02:01 with peptide … (NLV 3-1, the original bait), tetramers 1 µg/mL, 30 min on ice, DP and SW gates expanded about 10 days between rounds ('two to three rounds of selection' in the Methods), gate SP: higher = more of the variant in the gate that binds the original peptide and not the novel one = retained original binding. Fold enrichment of the CDR3 variant in one FACS gate of a two-tetra, unresolved parent, parent is a CDR3 fragment, scale: fold enrichment, numbering: sequential-on-construct, sequence …
[…] (CDR3 as printed); P9G derived by comparing it with the table's wild-type CDR3 ASSPTGGSPSPLH showed an enrichment of 0.
Work on […] (CDR3 as printed); P11C derived by comparing it with the table's wild-type CDR3 ASSPTGGSPSPLH yielded an enrichment of 6.3.
Variant […] (CDR3 as printed); P9T derived by comparing it with the table's wild-type CDR3 ASSPTGGSPSPLH has an enrichment of 0.619.
[…] (CDR3 as printed); S2Q derived by comparing it with the table's wild-type CDR3 ASSPTGGSPSPLH was tested, and the enrichment was 0.
In the case of […] (CDR3 as printed); P9C derived by comparing it with the table's wild-type CDR3 ASSPTGGSPSPLH, the enrichment is reported as 0.
[…] (CDR3 as printed); P9A derived by comparing it with the table's wild-type CDR3 ASSPTGGSPSPLH was tested, and the enrichment was 4.97.
In the case of […] (CDR3 as printed); T5K derived by comparing it with the table's wild-type CDR3 ASSPTGGSPSPLH, the enrichment is reported as 0.
For […] (CDR3 as printed); S8K derived by comparing it with the table's wild-type CDR3 ASSPTGGSPSPLH, the enrichment was 0.
Work on […] (CDR3 as printed); S3R derived by comparing it with the table's wild-type CDR3 ASSPTGGSPSPLH yielded an enrichment of 0.
Variant […] (CDR3 as printed); S10W derived by comparing it with the table's wild-type CDR3 ASSPTGGSPSPLH has an enrichment of 0.
Work on […] (CDR3 as printed); S8E derived by comparing it with the table's wild-type CDR3 ASSPTGGSPSPLH yielded an enrichment of 0.
Variant […] (CDR3 as printed); S8H derived by comparing it with the table's wild-type CDR3 ASSPTGGSPSPLH has an enrichment of 0.
[…] (CDR3 as printed); P11T derived by comparing it with the table's wild-type CDR3 ASSPTGGSPSPLH showed an enrichment of 0.
[…] (CDR3 as printed); P11Y derived by comparing it with the table's wild-type CDR3 ASSPTGGSPSPLH showed an enrichment of 1.78.
For […] (CDR3 as printed); P4Y derived by comparing it with the table's wild-type CDR3 ASSPTGGSPSPLH, the enrichment was 1.03.
[…] (CDR3 as printed); S10Q derived by comparing it with the table's wild-type CDR3 ASSPTGGSPSPLH showed an enrichment of 5.52.
Work on […] (CDR3 as printed); T5R derived by comparing it with the table's wild-type CDR3 ASSPTGGSPSPLH yielded an enrichment of 0.
[…] (CDR3 as printed); S10A derived by comparing it with the table's wild-type CDR3 ASSPTGGSPSPLH was tested, and the enrichment was 10.5.
[…] (CDR3 as printed); S3M derived by comparing it with the table's wild-type CDR3 ASSPTGGSPSPLH showed an enrichment of 0.
With […] (CDR3 as printed); S8G derived by comparing it with the table's wild-type CDR3 ASSPTGGSPSPLH the enrichment was 0.
[…] (CDR3 as printed); T5D derived by comparing it with the table's wild-type CDR3 ASSPTGGSPSPLH gave an enrichment of 0.
[…] (CDR3 as printed); T5F derived by comparing it with the table's wild-type CDR3 ASSPTGGSPSPLH showed an enrichment of 12.8.
Variant […] (CDR3 as printed); P11A derived by comparing it with the table's wild-type CDR3 ASSPTGGSPSPLH has an enrichment of 7.15.
[…] (CDR3 as printed); S10M derived by comparing it with the table's wild-type CDR3 ASSPTGGSPSPLH gave an enrichment of 9.51.
[…] (CDR3 as printed); S2H derived by comparing it with the table's wild-type CDR3 ASSPTGGSPSPLH showed an enrichment of 0.863.
In the case of […] (CDR3 as printed); S10C derived by comparing it with the table's wild-type CDR3 ASSPTGGSPSPLH, the enrichment is reported as 0.
For […] (CDR3 as printed); P9N derived by comparing it with the table's wild-type CDR3 ASSPTGGSPSPLH, the enrichment was 0.
With […] (CDR3 as printed); P9E derived by comparing it with the table's wild-type CDR3 ASSPTGGSPSPLH the enrichment was 0.
In the case of […] (CDR3 as printed); P11M derived by comparing it with the table's wild-type CDR3 ASSPTGGSPSPLH, the enrichment is reported as 7.79.
With […] (CDR3 as printed); S8V derived by comparing it with the table's wild-type CDR3 ASSPTGGSPSPLH the enrichment was 1.71.
[…] (CDR3 as printed); S3Y derived by comparing it with the table's wild-type CDR3 ASSPTGGSPSPLH showed an enrichment of 0.
[…] (CDR3 as printed); S10V derived by comparing it with the table's wild-type CDR3 ASSPTGGSPSPLH gave an enrichment of 0.
For […] (CDR3 as printed); S8F derived by comparing it with the table's wild-type CDR3 ASSPTGGSPSPLH, the enrichment was 0.
Work on […] (CDR3 as printed); P9I derived by comparing it with the table's wild-type CDR3 ASSPTGGSPSPLH yielded an enrichment of 0.
[…] (CDR3 as printed); P9S derived by comparing it with the table's wild-type CDR3 ASSPTGGSPSPLH gave an enrichment of 0.568.
Work on […] (CDR3 as printed); L12H derived by comparing it with the table's wild-type CDR3 ASSPTGGSPSPLH yielded an enrichment of 0.
[…] (CDR3 as printed); S8Y derived by comparing it with the table's wild-type CDR3 ASSPTGGSPSPLH showed an enrichment of 8.08.
[…] (CDR3 as printed); S2C derived by comparing it with the table's wild-type CDR3 ASSPTGGSPSPLH was tested, and the enrichment was 5.16.
For […] (CDR3 as printed); P4S derived by comparing it with the table's wild-type CDR3 ASSPTGGSPSPLH, the enrichment was 0.723.
In the case of […] (CDR3 as printed); P11K derived by comparing it with the table's wild-type CDR3 ASSPTGGSPSPLH, the enrichment is reported as 8.18.
Work on […] (CDR3 as printed); P4H derived by comparing it with the table's wild-type CDR3 ASSPTGGSPSPLH yielded an enrichment of 0.
With […] (CDR3 as printed); P9W derived by comparing it with the table's wild-type CDR3 ASSPTGGSPSPLH the enrichment was 0.
Variant […] (CDR3 as printed); P4Q derived by comparing it with the table's wild-type CDR3 ASSPTGGSPSPLH has an enrichment of 3.21.
Work on […] (CDR3 as printed); S10R derived by comparing it with the table's wild-type CDR3 ASSPTGGSPSPLH yielded an enrichment of 0.
Variant […] (CDR3 as printed); S3P derived by comparing it with the table's wild-type CDR3 ASSPTGGSPSPLH has an enrichment of 0.
In the case of […] (CDR3 as printed); P11I derived by comparing it with the table's wild-type CDR3 ASSPTGGSPSPLH, the enrichment is reported as 1.23.
[…] (CDR3 as printed); P9M derived by comparing it with the table's wild-type CDR3 ASSPTGGSPSPLH showed an enrichment of 0.
In the case of […] (CDR3 as printed); S3F derived by comparing it with the table's wild-type CDR3 ASSPTGGSPSPLH, the enrichment is reported as 0.
Variant […] (CDR3 as printed); P4I derived by comparing it with the table's wild-type CDR3 ASSPTGGSPSPLH has an enrichment of 0.897.
[…] (CDR3 as printed); P11N derived by comparing it with the table's wild-type CDR3 ASSPTGGSPSPLH gave an enrichment of 0.
With […] (CDR3 as printed); L12M derived by comparing it with the table's wild-type CDR3 ASSPTGGSPSPLH the enrichment was 2.27.
For […] (CDR3 as printed); T5E derived by comparing it with the table's wild-type CDR3 ASSPTGGSPSPLH, the enrichment was 0.
Variant […] (CDR3 as printed); P11W derived by comparing it with the table's wild-type CDR3 ASSPTGGSPSPLH has an enrichment of 0.
[…] (CDR3 as printed); T5C derived by comparing it with the table's wild-type CDR3 ASSPTGGSPSPLH was tested, and the enrichment was 0.
In the case of […] (CDR3 as printed); P11E derived by comparing it with the table's wild-type CDR3 ASSPTGGSPSPLH, the enrichment is reported as 4.19.
[…] (CDR3 as printed); S10G derived by comparing it with the table's wild-type CDR3 ASSPTGGSPSPLH showed an enrichment of 14.9.
In the case of […] (CDR3 as printed); S3V derived by comparing it with the table's wild-type CDR3 ASSPTGGSPSPLH, the enrichment is reported as 0.
In the case of […] (CDR3 as printed); P11G derived by comparing it with the table's wild-type CDR3 ASSPTGGSPSPLH, the enrichment is reported as 0.
[…] (CDR3 as printed); T5W derived by comparing it with the table's wild-type CDR3 ASSPTGGSPSPLH gave an enrichment of 15.1.
Work on […] (CDR3 as printed); S2I derived by comparing it with the table's wild-type CDR3 ASSPTGGSPSPLH yielded an enrichment of 0.
[…] (CDR3 as printed); P9D derived by comparing it with the table's wild-type CDR3 ASSPTGGSPSPLH gave an enrichment of 0.
For […] (CDR3 as printed); S8D derived by comparing it with the table's wild-type CDR3 ASSPTGGSPSPLH, the enrichment was 0.
Variant […] (CDR3 as printed); S10E derived by comparing it with the table's wild-type CDR3 ASSPTGGSPSPLH has an enrichment of 5.53.
With […] (CDR3 as printed); P4G derived by comparing it with the table's wild-type CDR3 ASSPTGGSPSPLH the enrichment was 0.
Work on […] (CDR3 as printed); P9F derived by comparing it with the table's wild-type CDR3 ASSPTGGSPSPLH yielded an enrichment of 0.
[…] (CDR3 as printed); S2K derived by comparing it with the table's wild-type CDR3 ASSPTGGSPSPLH showed an enrichment of 0.
With […] (CDR3 as printed); S10F derived by comparing it with the table's wild-type CDR3 ASSPTGGSPSPLH the enrichment was 0.
For […] (CDR3 as printed); S10I derived by comparing it with the table's wild-type CDR3 ASSPTGGSPSPLH, the enrichment was 0.
[…] (CDR3 as printed); L12R derived by comparing it with the table's wild-type CDR3 ASSPTGGSPSPLH showed an enrichment of 0.
In the case of […] (CDR3 as printed); S3A derived by comparing it with the table's wild-type CDR3 ASSPTGGSPSPLH, the enrichment is reported as 9.82.
For […] (CDR3 as printed); S2N derived by comparing it with the table's wild-type CDR3 ASSPTGGSPSPLH, the enrichment was 0.
Variant […] (CDR3 as printed); P4M derived by comparing it with the table's wild-type CDR3 ASSPTGGSPSPLH has an enrichment of 4.15.
For […] (CDR3 as printed); T5S derived by comparing it with the table's wild-type CDR3 ASSPTGGSPSPLH, the enrichment was 0.
In the case of […] (CDR3 as printed); T5L derived by comparing it with the table's wild-type CDR3 ASSPTGGSPSPLH, the enrichment is reported as 9.97.
[…] (CDR3 as printed); P11L derived by comparing it with the table's wild-type CDR3 ASSPTGGSPSPLH showed an enrichment of 2.19.
In the case of […] (CDR3 as printed); S2V derived by comparing it with the table's wild-type CDR3 ASSPTGGSPSPLH, the enrichment is reported as 1.18.
[…] (CDR3 as printed); S3D derived by comparing it with the table's wild-type CDR3 ASSPTGGSPSPLH showed an enrichment of 3.32.
In the case of […] (CDR3 as printed); T5V derived by comparing it with the table's wild-type CDR3 ASSPTGGSPSPLH, the enrichment is reported as 19.2.
Work on […] (CDR3 as printed); S3W derived by comparing it with the table's wild-type CDR3 ASSPTGGSPSPLH yielded an enrichment of 0.
In the case of […] (CDR3 as printed); S2E derived by comparing it with the table's wild-type CDR3 ASSPTGGSPSPLH, the enrichment is reported as 0.
With […] (CDR3 as printed); S8R derived by comparing it with the table's wild-type CDR3 ASSPTGGSPSPLH the enrichment was 0.
In the case of […] (CDR3 as printed); P4L derived by comparing it with the table's wild-type CDR3 ASSPTGGSPSPLH, the enrichment is reported as 0.
In the case of […] (CDR3 as printed); S3E derived by comparing it with the table's wild-type CDR3 ASSPTGGSPSPLH, the enrichment is reported as 0.
For […] (CDR3 as printed); P4E derived by comparing it with the table's wild-type CDR3 ASSPTGGSPSPLH, the enrichment was 3.03.

Same assay, conditions: with HLA-A*02:01 with peptide … (NLV 3-1, the original bait), tetramers 1 µg/mL, 30 min on ice, DP and SW gates expanded about 10 days between rounds ('two to three rounds of selection' in the Methods), gate SP: higher = more of the variant in the gate that binds the original peptide and not the novel one = retained original binding. Fold enrichment of the CDR3 variant in one FACS gate of a two-tetra, unresolved parent, parent is a CDR3 fragment, zero in all gates, scale: fold enrichment, numbering: …
With […] (CDR3 as printed); G7P derived by comparing it with the table's wild-type CDR3 ASSPTGGSPSPLH the enrichment was 0.
